Patent publication US10889826B2, “Methods and compositions for producing epidermal growth factor (EGF) in soybeans” (ARIZONA BOARD OF REGENTS ON BEHALF OF THE UNIVERSITY OF …, priority 2017, dated 2021)

How the values were obtained:
[1] = target: T1, Hela cell EGFR (Homo sapiens, UniProt P00533); experiment: EGF bioactivity in Hela cells by western blotting (pEGFR, total EGFR); assay type: cell-based; conditions: for overall EGF bioactivity: internalization, degradation and phosphorylation of EGFR: HeLa cells, compared with commercial rhEGF
T1 construct: soybean produced hEGF induces a rapid phosphorylation of Hela cell EGFR; endogenous in cells; host or cells: HeLa cells (American Tissue Culture Collection)
Method: Hela cells (obtained from American Tissue Culture Collection) were cultured in Minimum Essential Media (MEM) complemented with 10% Fetal Bovine Serum (FBS), 100 units/ml penicillin, and 100 μg/ml streptomycin. For western blotting assay, cells grown in 6-well plate were kept in serum free MEM media for 24 hours. […] Cells were lysed by directly adding 1×SDS sample buffer (50 mM Tris-HCl, pH 6.8, 10% glycerol, 2% SDS and 5% 13-ME) to the cells after washing 3 times with 1×PBS. EGF bio-activity was determined via EGFR phosphorylation and down-stream AKT phosphorylation. Total EGFR was also measured since EGFR is known to undergo internalization when stimulated with EGF. Antibodies used in western blot are anti-p-EGFR (Tyr1068) (#2234, Cell Signaling Technology), anti-total EGFR (#06-847, Millipore), anti-p-AKT (#4060, Cell Signaling Technology) and anti-Lamin B1 (#13435, Cell Signaling Technology). For immunocytochemistry assay, cells were grown on coverslip in 6-well plate and kept in serum free media for 24 hours before stimulation, cells were then either kept in serum free media (control) or stimulated with human or soy EGF for 6 hours. Cells were washed with PBS and fixed with 4% formalin. EGFR was labeled using anti-EGFR antibody (#4267, Cell Signaling Technology) and detected with Alexa Fluor 594 Goat anti-rabbit IgG (#A11012, life technology). The cell nuclei were shown using mounting medium with DAPI (#H-1200, Vectorshield).

[2] = target: T1, Hela cell EGFR; experiment: Immunocytochemistry assay of EGFR internalization in Hela cells; assay type: cell-based; conditions: Hela cells treated 6 hours; FIG. 5C
Method: (§1) Hela cells (obtained from American Tissue Culture Collection) were cultured in Minimum Essential Media (MEM) complemented with 10% Fetal Bovine Serum (FBS), 100 units/ml penicillin, and 100 μg/ml streptomycin. For western blotting assay, cells grown in 6-well plate were kept in serum free MEM media for 24 hours. Cells were then either kept in serum free medium (control) or stimulated with soymilk alone, soy EGF or commercial recombined hEGF for different time period as indicated. Cells were lysed by directly adding 1×SDS sample buffer (50 mM Tris-HCl, pH 6.8, 10% glycerol, 2% SDS and 5% 13-ME) to the cells after washing 3 times with 1×PBS. EGF bio-activity was determined via EGFR phosphorylation and down-stream AKT phosphorylation. Total EGFR was also measured since EGFR is known to undergo internalization when stimulated with EGF. Antibodies used in western blot are anti-p-EGFR (Tyr1068) (#2234, Cell Signaling Technology), anti-total EGFR (#06-847, Millipore), anti-p-AKT (#4060, Cell Signaling Technology) and anti-Lamin B1 (#13435, Cell Signaling Technology). […] EGFR was labeled using anti-EGFR antibody (#4267, Cell Signaling Technology) and detected with Alexa Fluor 594 Goat anti-rabbit IgG (#A11012, life technology). […]

[3] = Stability of rhEGF in soymilk, read out by EGFR bioactivity in Hela cells; assay type: physicochemical; conditions: in soymilk over 24 hours; bioactivity compared with control rhEGF; FIG. 5B
Method: as §1

Substance | overall EGF bioactivity: internalization, degradation and phosphorylation of EGFR ([1]; listed as EGF protein produced in soybean seed) | overall EGF bioactivity: internalization, degradation and phosphorylation of EGFR ([1]; listed as soybean-produced hEGF) | internalization and degradation of EGFR (decrease in abundance by immunoblot) ([1]; Hela cells, 0.1 μg/ml, FIG. 5B) | EGFR phosphorylation (pEGFR) ([1]; Hela cells, soymilk from ShEGF soybeans at 0.1, 0.05, 0.025 μg/ml, FIG. 5A) | EGFR degradation ([1]; Hela cells, soymilk from seeds producing ShEGF at 0.1, 0.05, 0.025 μg/ml, FIG. 5A) | internalization of the EGFR (immunohistochemical assay) [2] | degradation of EGF in soymilk [3]
ShEGF: human EGF produced in transgenic soybean seeds from a synthetic soybean codon optimized hEGF gene with N-terminal ER signal (SEQ ID NO: 1) (SLSSAENSDSECPLSHDGYCLHDGVCMYIEALDKYACNCVVGYIGERCQYRDLKWWELR; Modified EGF DNA sequence) | bioactive and comparable to commercially available hEGF | indistinguishable from the bioactivity of commercial rhEGF | induces an internalization and degradation of EGFR | induced pEGFR comparable to control rhEGF | induced concentration-dependent EGFR degradation comparable to the effect of rhEGF | induces internalization of the EGFR comparable to that from control rhEGF | –
rhEGF: commercial recombinant human EGF | – | – | – | – | – | – | not degraded in soymilk over 24 hours
